Source: patent US20150191516A1 (ONCOTHERAPY SCIENCE, published 2015)

Key:
HLA-DR8 (DRB1*08:03) = molecular target: T1, HLA-DR8 (DRB1*08:03) (human); assay: concluded from IFN-gamma ELISPOT with peptide-pulsed L cells expressing single HLA class II molecules and blocking mAbs; no direct binding assay
T1 construct: whole, on cells; MHC class II molecule on transfected L cells (L-DR8); also called L-DR8 (mouse L cells expressing it)
Protocol: (§1) The immune response of Th cells to APCs pulsed with peptides were assessed by IFN-gamma ELISPOT assays (Human IFN-gamma ELISPOT kit, BD Biosciences) as described previously (Tomita Y, et al. Cancer Sci; 102: 697-705.). Briefly, the frequency of peptide-specific CD4⁺ T cells producing IFN-gamma per 3×10⁴ bulk CD4⁺ T cells upon stimulation with peptide-pulsed PBMCs (3×10⁴ cells/well), or 1×10⁴ bulk CD4⁺ T cells upon stimulation with peptide-pulsed HLA-DR or DP-expressing L-cells (5×10⁴/well) was analyzed. To determine restriction HLA molecules involved in antigen presentation, blocking of antigen-induced IFN-gamma production was investigated by adding anti-HLA-DR mAb (L243, Biolegend), anti-HLA-DP mAb, (B7/21, abcam), anti-human HLA-DQ mAb (SPV-L3, abcam), or anti-HLA class I mAb, (W6/32, abcam). All mAbs were used at a final concentration of 5 micro-g/ml. Cells cultured with HIV-derived peptides were used as negative control. Cells cultured with PMA (100 ng/ml; Sigma-Aldrich) and ionomycin (500 ng/ml; Sigma-Aldrich) were used as positive controls. All assessments of IFN-gamma ELISPOT assays were carried out in duplicate or triplicate, and results corresponded to mean values.

HLA-DR15 (DRB1*15:02) = molecular target: T2, HLA-DR15 (DRB1*15:02) (human); assay: as above
T2 construct: whole, on cells; MHC class II molecule on transfected L cells (L-DR15); also called L-DR15 (mouse L cells expressing it)
Protocol: as §1

binding result (HLA-DR8 (DRB1*08:03)): binds
binding result (HLA-DR15 (DRB1*15:02)): binds
B1: LY6K (119-142) long peptide (peptide)
peptide: KWTEPYCVIAAVKIFPRFFMVAKQ
notes: Synthetic 24-mer, purity >90%
